Two molecules from US20210115124A1 (Genentech, published 2021) can be followed below.

Substitutions are numbered along the chain they refer to.

Broadly, the Kd is the free concentration of one partner at which half of the binding sites on the other are occupied at equilibrium, for simple one-to-one binding. Higher therefore signals lower affinity. As a reminder, the koff is the rate constant with which the complex falls apart. As usually defined, the kon is the rate constant with which the complex forms. A lower kon goes with slower complex formation.

Assay [1] deals with T1, human VEGF (hVEGF) (human, UniProt P15692 181-395).
T1 construct: also called VEGF-A
T1 sequence: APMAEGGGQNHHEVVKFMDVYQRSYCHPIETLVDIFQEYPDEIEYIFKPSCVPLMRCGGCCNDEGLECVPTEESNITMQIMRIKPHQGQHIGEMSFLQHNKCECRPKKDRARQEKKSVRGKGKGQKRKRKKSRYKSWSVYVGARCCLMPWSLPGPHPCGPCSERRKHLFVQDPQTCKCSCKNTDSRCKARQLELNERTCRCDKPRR
Briefly: SPR (FIG. 10D).

Assay [2] concerns the target T1, human VEGF (hVEGF). The experiment in a line: SPR single-cycle.
Assay [3] addresses T1, human VEGF (hVEGF). Briefly: SPR multiple-cycle.
For assay [4], the target named is T1, human VEGF (hVEGF). The experiment in a line: SPR. Background: Surface plasmon resonance follows binding to a sensor surface in real time, without labels.
In assay [5] the target is T1, human VEGF (hVEGF). Briefly: SPR. This is another data set of the same source.
In assay [6] the target is T2, VEGF (as used in the HUVEC migration assay) (Homo sapiens (Human), UniProt P15692 181-395).
T2 sequence: T1 sequence
The experiment in a line: cell-based or functional assay.

In assay [7] the target is T2, VEGF (as used in the HUVEC migration …). Briefly: cell-based or functional assay. This is another data set of the same source.

B1: G6.31 LC-F83V (Fab, V domains shown)
VH: EVQLVESGGGLVQPGGSLRLSCAASGFTISDYWIHWVRQAPGKGLEWVAGITPAGGYTYYADSVKGRFTISADTSKNTAYLQMNSLRAEDTAVYYCARFVFFLPYAMDYWGQGTLVTVSS
VL: DIQMTQSPSSLSASVGDRVTITCRASQDVSTAVAWYQQKPGKAPKLLIYSASFLYSGVPSRFSGSGSGTDFTLTISSLQPEDVATYYCQQGYGNPFTFGQGTKVEIK
notes: Fab
B1: the “fold increase in affinity” value with human VEGF (hVEGF) [1] stood at 3 fold.

B2: G6.31 LC-N94A (Fab, V domains shown)
VH: B1 VH
VL: B1 VL with V83F, N94A
notes: Fab
On to B2, for which, in the assay with human VEGF (hVEGF) [2], the “Fold difference (relative to G6.31)” value was 0.4 fold, the Kd is 3.93 nM, the off-rate constant (koff) turned out to be 0.00131 s⁻¹ and the kon worked out at 334000 M⁻¹ s⁻¹. Also, in the assay with human VEGF (hVEGF) [3], the affinity, expressed as Kd, was 1.06 nM; the koff came out at 0.00169 s⁻¹; the kon worked out at 1.59e+06 M⁻¹ s⁻¹. For the same molecule, in the assay with human VEGF (hVEGF) [4], the “Fold improved (relative to WT)” value is 0.5 fold, the Kd came out at 1.06 nM, the koff was determined as 0.00169 s⁻¹ and the kon is 1.59e+06 M⁻¹ s⁻¹. In the assay with human VEGF (hVEGF) [5], this molecule returned a Kd of 1.06 nM, a koff of 0.00169 s⁻¹ and a kon of 1.56e+06 M⁻¹ s⁻¹. Besides, in assay [6], the “IC50 relative to G6.31, VEGF-induced HUVEC migration” value came to 5.2 fold. Also, the “IC50 (read off the curve), VEGF-induced HUVEC migration” value in assay [7] was around 7 nM.
